B1: His6-tagged human BicD2-CTD (aa 715–804) [human] / GST-tagged mouse Nesprin-2 (aa 6123–6421) [mouse] (parent complex)
chain 1: YENEKAMVTETMMKLRNELKALKEDAATFSSLRAMFATRCDEYITQLDEMQRQLAAAEDEKKTLNSLLRMAIQQKLALTQRLELLELDHE
chain 2: RLWQKFLDDYSRFEDWLKSAERTAACPNSSEVLYTNAKEELKRFEAFQRQIHERLTQLELINKQYRRLARENRTDTASKLKQMVHEGNQRWDNLQKRVTAILRRLRYFTNQREEFEGTRESILVWLTEMDLQLTNVEHFSESDAEDKMRQLNGFQQEITLNTNKIDQLIVFGEQLIQKSEPLDAVLIEDELEELHRYCQEVFGRVSRFHRRLTSHTPGLDDEKEASENETDIEDPREIQADSWRKRRESEEPTSPQSLCHLVPPALGHERSGCETPVSVDSIPLEWDHTGDVGGSSSHE

Variants of: B1
Assay: GST-pulldown, SDS-PAGE band intensity; n = 3; parent: 1; read off a plot

Row | ratio to parent | Variant
1 | ~0.32 | chain 2 RLWQKFLDDYSRFEDWLKSAERTAACPNSSEVLYTNAKEELKRFEAFQRQIHERLTQLELINKQYRRLARENRTDTASKLKQMVHEGNQRWDNLQKRVTAILRRLRYFTNQREEFEGTRESILVWLTEMDLQLTNVEHFSESDAEDKMRQLNGFQQEITLNTNKIDQLIVFGEQLIQKSEPLDAVLIEDELEELHRACQEVFGRVSRFHRRLTSHTPGLDDEKEASENETDIEDPREIQADSWRKRRESEEPTSPQSLCHLVPPALGHERSGCETPVSVDSIPLEWDHTGDVGGSSSHE [chain 2 Y197A]
2 | ~0.04 | chain 2 RLWQKFLDDYSRFEDWLKSAERTAACPNSSEVLYTNAKEELKRFEAFQRQIHERLTQLELINKQYRRLARENRTDTASKLKQMVHEGNQRWDNLQKRVTAILRRLRYFTNQREEFEGTRESILAWLTEMDAQLTNVEHASESDAEDKMRQLNGFQQEITLNTNKIDQLIVFGEQLIQKSEPLDAVLIEDELEELHRYCQEVFGRVSRFHRRLTSHTPGLDDEKEASENETDIEDPREIQADSWRKRRESEEPTSPQSLCHLVPPALGHERSGCETPVSVDSIPLEWDHTGDVGGSSSHE [chain 2 V124A, chain 2 L131A, chain 2 F139A]
3 | ~0.81 | chain 2 RLWQKFLDDYSRFEDWLKSAERTAACPNSSEVLYTNAKEELKRFEAFQRQIHERLTQLELINKQYRRLARENRTDTASKLKQMVHEGNQRWDNLQKRVTAILRRLRYFTNQREEFEGTRESILVWLTAMDLQLTNVEHFSESDAEDKMRQLNGFQQEITLNTNKIDQLIVFGEQLIQKSEPLDAVLIEDELEELHRYCQEVFGRVSRFHRRLTSHTPGLDDEKEASENETDIEDPREIQADSWRKRRESEEPTSPQSLCHLVPPALGHERSGCETPVSVDSIPLEWDHTGDVGGSSSHE [chain 2 E128A]
4 | ~0.29 | chain 2 RLWQKFLDDYSRFEDWLKSAERTAACPNSSEVLYTNAKEELKRFEAFQRQIHERLTQLELINKQYRRLARENRTDTASKLKQMVHEGNQRWDNLQKRVTAILRRLRYFTNQREEFEGTRESILVWLTEMDLQLTNVEAFSESDAEDKMRQLNGFQQEITLNTNKIDQLIVFGEQLIQKSEPLDAVLIEDELEELHRYCQEVFGRVSRFHRRLTSHTPGLDDEKEASENETDIEDPREIQADSWRKRRESEEPTSPQSLCHLVPPALGHERSGCETPVSVDSIPLEWDHTGDVGGSSSHE [chain 2 H138A]

Variants of: B1
Assay: as above
Remark: another data set of the same source

Row | ratio to parent | Variant
5 | ~0.47 | chain 1 YENEKAMVTETMMKLRNELKALKEDAATFSSLRAMFATRCDEYITQLDEMQRQLAAAEDEKKTLNSLLAMAIQQKLALTQRLELLELDHE [chain 1 R69A]
6 | ~0.47 | chain 1 YENEKAMVTETMMKLRNELKALKEDAATFSSLRAMFATRCDEYITQLDEMQRQLAAAEDEKKTLNSLLRMAIQQKLALTQRLCLLELDHE [chain 1 E83C]
